Tests used:
[1] = molecular target: T1, full-length human SIRPαV1 (NP_542970.1) on cells (human, UniProt P78324 31-504); assay: flow cytometry, CD14+ monocytes V1V1
T1 construct: one molecule for CHO-K1 and Expi-CHO transfectants (NP_542970.1) and for endogenous V1 on U-937 cells and on CD14+ monocytes of V1/V1 donors; also called CHO-hSIRPαV1; αV1 WT
Method in brief: (§1)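 PBMCs from donors homozygous for SIRPα V1 or V2 were blocked with donkey IgG and incubated on ice for 60 minutes with increasing antibody concentrations. Bound antibody detected with AF647 donkey F(ab′)₂ anti-human IgG. Median fluorescence intensity of CD14+ cells served as the binding measure.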

[2] = molecular target: T2, full-length human SIRPαV2 (CAA71403.1) on cells (human, UniProt P78324 31-504); assay: flow cytometry, Expi-CHO cells
T2 construct: one molecule for CHO-K1 and Expi-CHO transfectants (CAA71403.1) and for endogenous V2 on THP-1 cells and on CD14+ monocytes of V2/V2 donors; also called CHO-hSIRPαV2; αV2 WT
T2 sequence (P78324 other isoform, or with tags, fused parts or gaps): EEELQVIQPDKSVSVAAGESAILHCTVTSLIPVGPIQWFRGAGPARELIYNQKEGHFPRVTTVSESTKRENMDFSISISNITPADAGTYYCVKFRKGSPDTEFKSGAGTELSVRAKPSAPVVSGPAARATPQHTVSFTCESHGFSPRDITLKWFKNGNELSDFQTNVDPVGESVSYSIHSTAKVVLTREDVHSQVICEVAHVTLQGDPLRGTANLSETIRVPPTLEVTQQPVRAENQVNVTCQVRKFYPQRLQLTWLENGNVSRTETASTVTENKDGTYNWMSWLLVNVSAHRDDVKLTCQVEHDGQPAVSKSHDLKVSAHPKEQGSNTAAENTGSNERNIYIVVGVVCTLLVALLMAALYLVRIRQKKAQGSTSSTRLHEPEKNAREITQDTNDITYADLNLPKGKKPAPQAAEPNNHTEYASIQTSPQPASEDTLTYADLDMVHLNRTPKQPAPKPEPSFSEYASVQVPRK
Experimental: (§2) Expi-CHO parental cells are transduced with lentiviruses containing either full-length wild-type human SIRPαV2 allele (CAA71403.1) or full-length human SIRPαV2 with amino acid point mutations (Table 58) and sorted to achieve matching expression levels. These cells are blocked with donkey IgG and incubated on ice with increasing concentrations of antibodies for 60 minutes, washed and stained with AF647-conjugated donkey F(ab′)₂ anti-human IgG antibodies. Stained cells are washed, fixed, and analyzed by flow cytometry. Median fluorescent intensity is determined and used as a measure of antibody binding.

[3] = molecular target: T3, full-length human SIRPαV2 E→N on Expi-CHO cells (human, UniProt P78324 31-504); assay: flow cytometry, Expi-CHO cells
T3 construct: the entry already carries the change (TKRE to TKRN)
T3 sequence (P78324 other isoform, or with tags, fused parts or gaps): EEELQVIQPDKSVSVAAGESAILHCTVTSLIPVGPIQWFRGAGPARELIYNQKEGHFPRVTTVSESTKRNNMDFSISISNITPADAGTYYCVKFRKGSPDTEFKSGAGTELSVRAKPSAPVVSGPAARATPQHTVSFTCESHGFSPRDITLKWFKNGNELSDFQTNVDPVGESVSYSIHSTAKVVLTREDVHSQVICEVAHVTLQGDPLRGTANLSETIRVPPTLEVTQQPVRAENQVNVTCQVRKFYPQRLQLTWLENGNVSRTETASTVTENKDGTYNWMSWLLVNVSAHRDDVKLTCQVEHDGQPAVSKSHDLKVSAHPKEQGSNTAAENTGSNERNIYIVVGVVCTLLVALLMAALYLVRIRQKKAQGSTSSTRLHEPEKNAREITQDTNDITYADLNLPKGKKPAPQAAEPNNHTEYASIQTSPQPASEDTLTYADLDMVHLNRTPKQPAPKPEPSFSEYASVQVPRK
Experimental: as §2

[4] = molecular target: T4, full-length human SIRPαV2 D→E on Expi-CHO cells (human, UniProt P78324 31-504); assay: flow cytometry, Expi-CHO cells
T4 construct: the entry already carries the change (SPDT to SPET)
T4 sequence (P78324 other isoform, or with tags, fused parts or gaps): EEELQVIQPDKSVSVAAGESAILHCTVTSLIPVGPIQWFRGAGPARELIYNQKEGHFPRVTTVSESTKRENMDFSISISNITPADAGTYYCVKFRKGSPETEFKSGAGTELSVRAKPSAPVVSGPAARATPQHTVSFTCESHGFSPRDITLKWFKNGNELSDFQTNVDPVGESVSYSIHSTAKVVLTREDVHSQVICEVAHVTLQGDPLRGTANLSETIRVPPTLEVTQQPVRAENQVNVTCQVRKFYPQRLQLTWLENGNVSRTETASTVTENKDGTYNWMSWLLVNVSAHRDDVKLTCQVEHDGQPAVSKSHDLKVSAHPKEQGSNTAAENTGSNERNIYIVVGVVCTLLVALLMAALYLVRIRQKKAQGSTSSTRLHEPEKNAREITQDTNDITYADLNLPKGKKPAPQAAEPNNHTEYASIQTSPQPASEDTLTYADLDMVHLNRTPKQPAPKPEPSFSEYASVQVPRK
Experimental: as §2

[5] = molecular target: T2, full-length human SIRPαV2 (CAA71403.1) …; assay: flow cytometry, CD14+ monocytes V2V2
Method in brief: as §1

[6] = molecular target: T2, full-length human SIRPαV2 (CAA71403.1) …; assay: flow cytometry, competition with CD47 tetramer, CHO-K1 cells
Experimental: Cells are washed, fixed, and analyzed by flow cytometry. Median fluorescent intensity is determined and used as a measure of CD47 binding.

[7] = molecular target: T5, full-length human SIRPβL H→D on Expi-CHO cells (human, UniProt Q5TFQ8 30-398); assay: flow cytometry, Expi-CHO cells
T5 construct: the entry already carries the change (PDHV to PDDV); also called βL WT H→D
T5 sequence (Q5TFQ8 30-398 H130D): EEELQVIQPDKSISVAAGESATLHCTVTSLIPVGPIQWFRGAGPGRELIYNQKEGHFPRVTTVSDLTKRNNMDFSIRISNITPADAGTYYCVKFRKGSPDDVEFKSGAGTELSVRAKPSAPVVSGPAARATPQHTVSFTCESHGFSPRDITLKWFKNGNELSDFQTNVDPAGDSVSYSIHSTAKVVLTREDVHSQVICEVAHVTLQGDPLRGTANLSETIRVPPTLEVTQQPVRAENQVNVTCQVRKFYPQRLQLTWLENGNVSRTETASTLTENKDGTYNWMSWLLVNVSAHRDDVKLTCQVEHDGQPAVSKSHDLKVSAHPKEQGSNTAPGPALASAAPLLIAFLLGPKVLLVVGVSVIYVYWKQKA
Experimental: Expi-CHO parental cells are transduced with lentiviruses containing either full-length wild-type human SIRPβL (Q5TFQ8) or full-length human SIRPβL with a single amino acid point mutation (Table 62) and sorted to achieve matching expression levels. These cells are blocked with donkey IgG and incubated on ice with increasing concentrations of antibodies for 60 minutes, washed and stained with AF647-conjugated donkey F(ab′)₂ anti-human IgG antibodies. Stained cells are washed, fixed, and analyzed by flow cytometry. Median fluorescent intensity is determined and used as a measure of antibody binding.
A single amino acid substitution (H→D) introduced within the loop region maintained, strengthened, or facilitated antibody binding to these cells (FIG. 34B, Table 63).

[8] = molecular target: ED-tagged human SIRPα V1 receptor on Jurkat signaling reporter cells (human, UniProt P78324 31-504); assay: cell-based or functional assay
[9] = molecular target: ED-tagged human SIRPα V2 receptor on Jurkat signaling reporter cells (human, UniProt P78324 31-504); assay: cell-based or functional assay
[10] = molecular target: T6, full-length human SIRPβ1 D→H on Expi-CHO cells (human, UniProt O00241 30-398); assay: flow cytometry, Expi-CHO cells expressing full-length human SIRPβ1 D→H
T6 construct: the entry already carries the change (PDDV to PDHV)
T6 sequence (O00241 30-398 D130H): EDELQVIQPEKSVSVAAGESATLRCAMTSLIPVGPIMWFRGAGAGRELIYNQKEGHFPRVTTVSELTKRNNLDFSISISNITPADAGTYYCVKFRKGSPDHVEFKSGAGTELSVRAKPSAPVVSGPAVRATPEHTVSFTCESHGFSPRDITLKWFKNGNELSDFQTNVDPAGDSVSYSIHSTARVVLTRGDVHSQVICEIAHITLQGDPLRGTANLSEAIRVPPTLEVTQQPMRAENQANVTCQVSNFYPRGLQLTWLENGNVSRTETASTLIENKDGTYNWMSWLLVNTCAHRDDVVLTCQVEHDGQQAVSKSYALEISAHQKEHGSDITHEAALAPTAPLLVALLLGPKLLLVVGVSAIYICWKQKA
Experimental: These cells are blocked with donkey IgG and incubated on ice with increasing concentrations of antibodies for 60 minutes, washed and stained with AF647-conjugated donkey F(ab′)₂ anti-human IgG antibodies. Stained cells are washed, fixed, and analyzed by flow cytometry. Median fluorescent intensity is determined and used as a measure of antibody binding.

[11] = molecular target: T1, full-length human SIRPαV1 (NP_542970.1) …; assay: flow cytometry, competition with CD47 tetramer, monocytes V1V1
Experimental: Cells are washed, fixed, and analyzed by flow cytometry. Median fluorescent intensity of CD14+gated population is determined and used as a measure of CD47 binding.

[12] = molecular target: T1, full-length human SIRPαV1 (NP_542970.1) …; assay: flow cytometry, Expi-CHO cells
Experimental: as §2, with “SIRPαV1” for “SIRPαV2”, “(NP_542970.1)” for “(CAA71403.1)”, “56)” for “58)”

[13] = molecular target: T7, full-length human SIRPαV1 DD→EN on Expi-CHO cells (human, UniProt P78324 31-504); assay: flow cytometry, Expi-CHO cells
T7 construct: the entry already carries the change (PDDV to PENV)
T7 sequence (P78324 31-504 D130E/D131N): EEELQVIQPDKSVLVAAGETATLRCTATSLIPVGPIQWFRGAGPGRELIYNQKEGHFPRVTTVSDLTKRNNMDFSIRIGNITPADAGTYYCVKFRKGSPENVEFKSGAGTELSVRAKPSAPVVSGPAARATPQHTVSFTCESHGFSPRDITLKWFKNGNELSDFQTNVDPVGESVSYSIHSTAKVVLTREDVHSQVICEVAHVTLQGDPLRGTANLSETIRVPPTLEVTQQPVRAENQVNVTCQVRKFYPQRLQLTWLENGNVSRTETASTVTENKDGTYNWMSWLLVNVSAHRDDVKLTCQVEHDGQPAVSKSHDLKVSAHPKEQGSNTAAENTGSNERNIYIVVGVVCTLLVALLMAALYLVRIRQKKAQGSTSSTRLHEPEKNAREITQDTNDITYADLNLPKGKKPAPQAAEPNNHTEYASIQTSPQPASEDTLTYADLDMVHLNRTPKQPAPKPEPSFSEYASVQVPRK
Experimental: as §2, with “SIRPαV1” for “SIRPαV2”, “(NP_542970.1)” for “(CAA71403.1)”, “56)” for “58)”

[14] = molecular target: T8, full-length human SIRPαV1 D→N on Expi-CHO cells (human, UniProt P78324 31-504); assay: flow cytometry, Expi-CHO cells
T8 construct: the entry already carries the change (PDDV to PDNV)
T8 sequence (P78324 31-504 D131N): as the sequence (P78324 31-504 D130E/D131N) above, with E100D counted along it
Experimental: as §2, with “SIRPαV1” for “SIRPαV2”, “(NP_542970.1)” for “(CAA71403.1)”, “56)” for “58)”

[15] = molecular target: T9, full-length human SIRPαV1 D→E on Expi-CHO cells (human, UniProt P78324 31-504); assay: flow cytometry, Expi-CHO cells
T9 construct: the entry already carries the change (PDDV to PEDV)
T9 sequence (P78324 31-504 D130E): as the sequence (P78324 31-504 D130E/D131N) above, with N101D counted along it
Experimental: as §2, with “SIRPαV1” for “SIRPαV2”, “(NP_542970.1)” for “(CAA71403.1)”, “56)” for “58)”

[16] = molecular target: T10, full-length human SIRPαV1 N→E on Expi-CHO cells (human, UniProt P78324 31-504); assay: flow cytometry, Expi-CHO cells
T10 construct: the entry already carries the change (TKRN to TKRE)
T10 sequence (P78324 31-504 N100E): as the sequence (P78324 31-504 D130E/D131N) above, with N70E, E100D, N101D counted along it
Experimental: as §2, with “SIRPαV1” for “SIRPαV2”, “(NP_542970.1)” for “(CAA71403.1)”, “56)” for “58)”

T1 sequence (P78324 31-504): as the sequence (P78324 31-504 D130E/D131N) above, with E100D, N101D counted along it

- EC50 [1]: 300 pM
- EC50 [2]: 200 pM
- EC50 [3]: 200 pM
- EC50 [4]: 600 pM
- EC50 [5]: 200 pM
- IC50 [6]: 300 pM
- EC50 [7]: 200 pM
- Blockade of Cellular CD47-Mediated SIRPα Signaling; IC50 [8]: 40 pM
- Blockade of Cellular CD47-Mediated SIRPα Signaling; IC50 [9]: 40 pM
- binding result [10]: no binding (tested: about 67 nM)
- IC50 [11]: 30 pM
- EC50 [12]: 300 pM
- EC50 [13]: 6600 pM
- EC50 [14]: 9600 pM
- EC50 [15]: 200 pM
- EC50 [16]: 300 pM
B1: Antibody D (antibody, human IgG1, kappa, L234A L235A, V domains shown)
VH: EVQLVESGGGLVQPGGSLRLSCAASGFTFSSFDMHWVRQPTGKGLEWVSTIGIAGDTYFPGSVKGRFTISRENAKNSLYLQMNSLRAGDTAVYYCARGGNWDDALDIWGQGTMVTVSS
VL: DIQMTQSPSSLSASVGDRVTITCRASQDINNYLAWFQQKPGKAPKSLIYTASSLQSGVPSKFSGSGSGTDFTLTISSLQPEDFATYYCQQYNTYPYTFGQGTKLEIKR

Reference: patent publication US20230012273A1 (Boehringer Ingelheim, published 2023)
